Patent US20240158474A1 (SINO BIOLOGICAL, published 2024)

What was measured:
Experiment in all cases: double-antibody sandwich ELISA on the mixture of 13 HPV VLPs
HPV31 VLP protein = biological target: T1, HPV31 VLP protein (human papillomavirus type 31; human …, UniProt P17388 1-475; P06416 474-499)
T1 construct: range 1-475;range 474-499; Complete VLP protein used as coating protein; also called P31SHELL(1-475Y)+HPV33L1(474K-499K)
T1 sequence: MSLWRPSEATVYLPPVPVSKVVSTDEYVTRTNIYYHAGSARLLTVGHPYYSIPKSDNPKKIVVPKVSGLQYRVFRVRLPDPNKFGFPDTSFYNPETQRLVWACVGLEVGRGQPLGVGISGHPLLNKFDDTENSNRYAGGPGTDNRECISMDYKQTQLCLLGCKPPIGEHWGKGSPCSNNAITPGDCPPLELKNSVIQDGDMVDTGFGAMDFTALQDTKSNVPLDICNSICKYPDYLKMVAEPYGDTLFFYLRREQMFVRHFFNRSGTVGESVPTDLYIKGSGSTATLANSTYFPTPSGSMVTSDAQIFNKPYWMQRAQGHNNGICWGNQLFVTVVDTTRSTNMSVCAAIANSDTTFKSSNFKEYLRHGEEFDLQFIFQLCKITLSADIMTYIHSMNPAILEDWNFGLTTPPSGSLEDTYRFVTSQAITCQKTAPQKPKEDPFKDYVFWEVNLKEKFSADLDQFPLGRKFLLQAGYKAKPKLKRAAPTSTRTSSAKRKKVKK

HPV16 VLP protein = biological target: T2, HPV16 VLP protein (human papillomavirus type 16, UniProt P03101 1-474)
T2 construct: Complete VLP protein; no limits of the construct printed, whole entry named; also called HPV-16L1
T2 sequence: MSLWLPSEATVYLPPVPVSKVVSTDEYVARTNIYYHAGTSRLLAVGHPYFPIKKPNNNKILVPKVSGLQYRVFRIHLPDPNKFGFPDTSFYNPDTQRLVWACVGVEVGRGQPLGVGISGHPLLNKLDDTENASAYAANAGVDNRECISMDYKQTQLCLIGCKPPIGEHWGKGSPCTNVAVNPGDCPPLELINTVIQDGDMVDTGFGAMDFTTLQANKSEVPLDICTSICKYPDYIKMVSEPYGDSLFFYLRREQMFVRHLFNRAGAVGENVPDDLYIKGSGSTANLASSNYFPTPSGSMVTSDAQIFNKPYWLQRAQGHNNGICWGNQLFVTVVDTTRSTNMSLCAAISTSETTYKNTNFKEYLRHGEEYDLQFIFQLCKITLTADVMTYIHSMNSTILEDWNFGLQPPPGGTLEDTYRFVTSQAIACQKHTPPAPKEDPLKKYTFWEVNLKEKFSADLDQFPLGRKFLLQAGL

HPV33 VLP protein = biological target: T3, HPV33 VLP protein (human papillomavirus type 33, UniProt P06416 1-499)
T3 construct: Complete VLP protein; no limits of the construct printed, whole entry named; also called HPV33L1
T3 sequence: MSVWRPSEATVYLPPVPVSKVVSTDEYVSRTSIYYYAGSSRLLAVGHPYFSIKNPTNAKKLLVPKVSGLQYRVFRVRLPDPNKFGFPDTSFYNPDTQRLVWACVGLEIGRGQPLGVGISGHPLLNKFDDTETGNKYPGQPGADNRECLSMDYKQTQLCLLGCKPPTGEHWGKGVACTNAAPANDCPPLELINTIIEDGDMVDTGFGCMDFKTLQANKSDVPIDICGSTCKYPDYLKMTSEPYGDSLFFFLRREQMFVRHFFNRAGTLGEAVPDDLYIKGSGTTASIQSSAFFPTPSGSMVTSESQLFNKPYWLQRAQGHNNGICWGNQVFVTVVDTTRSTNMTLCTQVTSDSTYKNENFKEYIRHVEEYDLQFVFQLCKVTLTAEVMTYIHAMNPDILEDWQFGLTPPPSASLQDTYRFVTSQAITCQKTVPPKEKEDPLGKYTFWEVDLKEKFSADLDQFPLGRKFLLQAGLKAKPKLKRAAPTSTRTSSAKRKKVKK

HPV35 VLP protein = biological target: T4, HPV35 VLP protein (human papillomavirus type 35; human …, UniProt P27232 1-472; P06416 474-499)
T4 construct: range 1-472;range 474-499; Complete VLP protein used as coating protein; also called HPV35L1(1-472L)+HPV33L1(474K-499K)
T4 sequence: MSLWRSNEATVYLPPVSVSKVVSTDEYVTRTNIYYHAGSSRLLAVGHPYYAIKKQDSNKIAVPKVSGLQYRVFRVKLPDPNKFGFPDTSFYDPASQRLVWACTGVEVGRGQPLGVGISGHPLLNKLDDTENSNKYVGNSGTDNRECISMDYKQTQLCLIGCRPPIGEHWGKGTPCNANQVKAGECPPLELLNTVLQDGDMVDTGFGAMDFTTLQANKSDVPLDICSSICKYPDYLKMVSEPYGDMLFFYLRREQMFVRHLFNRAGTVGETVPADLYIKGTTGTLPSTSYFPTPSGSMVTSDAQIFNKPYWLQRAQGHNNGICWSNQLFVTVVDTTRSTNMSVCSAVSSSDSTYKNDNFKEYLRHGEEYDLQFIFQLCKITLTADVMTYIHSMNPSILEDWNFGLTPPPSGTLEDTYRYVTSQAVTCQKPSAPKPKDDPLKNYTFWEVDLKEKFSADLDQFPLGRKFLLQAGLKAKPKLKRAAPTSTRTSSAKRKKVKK

HPV45 VLP protein = biological target: T5, HPV45 VLP protein (human papillomavirus type 45; human …, UniProt P36741 1-478; P06416 474-499)
T5 construct: range 1-478;range 474-499; Complete VLP protein used as coating protein; also called HPV45L1(1-478L)+HPV33L1(474K-499K)
T5 sequence: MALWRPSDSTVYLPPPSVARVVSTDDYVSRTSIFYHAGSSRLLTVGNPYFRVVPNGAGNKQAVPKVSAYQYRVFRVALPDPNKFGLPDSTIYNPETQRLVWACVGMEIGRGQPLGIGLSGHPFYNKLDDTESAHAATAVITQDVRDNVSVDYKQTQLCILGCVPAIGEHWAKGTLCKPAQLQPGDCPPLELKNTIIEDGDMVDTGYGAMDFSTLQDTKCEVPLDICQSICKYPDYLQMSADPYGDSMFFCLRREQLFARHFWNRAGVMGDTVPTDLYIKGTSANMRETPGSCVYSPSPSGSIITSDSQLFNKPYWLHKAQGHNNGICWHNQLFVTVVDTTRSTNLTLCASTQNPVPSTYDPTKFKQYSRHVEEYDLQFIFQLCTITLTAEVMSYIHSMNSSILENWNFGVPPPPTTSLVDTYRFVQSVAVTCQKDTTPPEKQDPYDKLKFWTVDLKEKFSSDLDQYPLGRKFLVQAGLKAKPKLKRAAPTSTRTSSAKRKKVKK

B1: monoclonal antibody HPV6-R003 (antibody, V domains shown)
VH: QQQLEESGGGLVKPGGTLTLTCKASGIDLSNYYMCWVRQAPGKGLEWIGCIYTGSGRTYYASWAKGRFTISKASSTTVTLQMTSLTAADTATYFCARDYLGWRASNIWGPGTLVTVSS
VL: ELVMTQTPSSVSAAVGGTVTINCQASQSVYSNNLVWYQQKPGQPPKLLIYGASTLASGVPSRFKGSGSGTQFTLTISDVVCDDAATYYCGGYVSDSTDGTAFGGGTEVVVKG
notes: here built from variable plus constant region so that the signal peptides are left out; In the sandwich ELISA the same antibody is used as coating antibody and, labelled with horseradish peroxidase, as detection antibody; also called anti-HPV6 L1 protein antibody
**Q.** Does B1 bind (HPV31 VLP protein)?
**A.** Result: no binding (tested: mixture 50 ng/mL, each subtype 1/13)

**Q.** Does B1 bind (HPV16 VLP protein)?
**A.** Result: no binding (tested: mixture 50 ng/mL, each subtype 1/13)

**Q.** Does B1 bind (HPV33 VLP protein)?
**A.** Result: no binding (tested: mixture 50 ng/mL, each subtype 1/13)

**Q.** Does B1 bind (HPV35 VLP protein)?
**A.** Result: no binding (tested: mixture 50 ng/mL, each subtype 1/13)

**Q.** Does B1 bind (HPV45 VLP protein)?
**A.** Result: no binding (tested: mixture 50 ng/mL, each subtype 1/13)
